15 molecules from patent publication US20230265151A1, “GIP/GLP1 CO-AGONIST COMPOUNDS” (priority 2020, published 2023) can be followed below.

Assay [1] has as its target T1, human GIP receptor (human, UniProt P48546 22-466).
T1 construct: whole, on cells; also called hGIPR; human glucose-dependent insulinotropic polypeptide receptor
T1 sequence (looked up): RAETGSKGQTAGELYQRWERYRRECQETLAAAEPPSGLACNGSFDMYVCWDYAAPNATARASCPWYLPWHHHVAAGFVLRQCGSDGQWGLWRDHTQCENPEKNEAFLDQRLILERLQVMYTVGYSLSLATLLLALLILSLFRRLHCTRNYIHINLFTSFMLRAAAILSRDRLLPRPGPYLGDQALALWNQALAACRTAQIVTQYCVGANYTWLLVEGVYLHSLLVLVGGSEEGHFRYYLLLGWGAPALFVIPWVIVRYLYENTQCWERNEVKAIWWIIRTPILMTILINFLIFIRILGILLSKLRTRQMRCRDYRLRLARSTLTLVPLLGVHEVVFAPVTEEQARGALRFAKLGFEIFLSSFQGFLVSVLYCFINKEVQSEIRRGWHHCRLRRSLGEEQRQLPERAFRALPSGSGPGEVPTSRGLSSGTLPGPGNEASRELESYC
Briefly: SPA competition vs [125I]-GIP, hGIPR membranes.

Assay [2] has as its target T2, human glucagon receptor (human, UniProt P47871 26-477).
T2 construct: whole, on cells; also called hGCGR; hGcgR
Nature of the assay: SPA competition vs [125I]-Gcg, hGcgR membranes.

Assay [3] has as its target T3, human GLP-1 receptor (human, UniProt P43220 24-463).
T3 construct: whole, on cells; also called hGLP-1R; human glucagon-like peptide-1 receptor
Nature of the assay: SPA competition vs [125I]-GLP-1, hGLP-1R membranes. In short, it runs like this: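 Competition binding in 25 mM HEPES pH 7.4, 2.5 mM CaCl₂, 1 mM MgCl₂, 0.1% bacitracin, 0.003% TWEEN-20, EDTA-free protease inhibitors. IC₅₀ from four-parameter nonlinear fit; Kᵢ given as geometric mean ± SEM, n = independent replicates on different days.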

T2 sequence (P47871 26-477): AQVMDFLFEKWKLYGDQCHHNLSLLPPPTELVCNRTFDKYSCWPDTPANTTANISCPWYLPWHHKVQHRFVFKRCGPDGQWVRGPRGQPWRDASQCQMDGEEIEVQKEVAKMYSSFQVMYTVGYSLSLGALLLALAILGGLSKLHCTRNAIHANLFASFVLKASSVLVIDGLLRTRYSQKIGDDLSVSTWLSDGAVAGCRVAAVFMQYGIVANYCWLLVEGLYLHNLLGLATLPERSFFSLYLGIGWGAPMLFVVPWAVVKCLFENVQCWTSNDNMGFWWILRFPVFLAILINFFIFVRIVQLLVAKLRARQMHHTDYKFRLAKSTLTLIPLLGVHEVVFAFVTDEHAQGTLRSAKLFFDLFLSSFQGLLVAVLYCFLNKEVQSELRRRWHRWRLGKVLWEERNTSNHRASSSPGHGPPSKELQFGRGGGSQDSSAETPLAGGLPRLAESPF

B1: Y-Aib-EGT-αMeF(2F)-TSD-4Pal-SI-αMeL-LD-Orn-K((2-[2-(2-Amino-ethoxy)-ethoxy]-acetyl)2-(γ-Glu)-CO-(CH2)10-CH3)AQ-Aib-EFI-(D-Glu)-αMeY-LIEGGK((2-[2-(2-Amino-ethoxy … (peptide)
peptide: YXEGTXTSDXSIXLDXKAQXEFIXXLIEGGKSSGAPPPS
modifications: Aib2, αMeF(2F)6, 4Pal10, αMeL13, Orn16, K17(Z1), Aib20, D-Glu24, αMeY25, K31(Z1), C-term NH2; Z1=AEEA2-(γ-Glu)-CO-(CH2)10-CH3
A word on the Ki: it is a dissociation constant, usually derived from enzyme kinetics or from competition with a known ligand. On to B1, for which the Ki in assay [1] was determined as 0.0309 nM; in assay [2], 44.8 nM; in assay [3], 0.154 nM.

B2: Y-Aib-EGT-αMeF(2F)-TSD-4Pal-SI-αMeL-LD-Orn-K((2-[2-(2-Amino-ethoxy)-ethoxy]-acetyl)2-(γ-Glu)-CO-(CH2)12-CH3)AQ-Aib-EFI-(D-Glu)-αMeY-LIEGGK((2-[2-(2-Amino-ethoxy … (peptide)
peptide: YXEGTXTSDXSIXLDXKAQXEFIXXLIEGGKSSGAPPPS
modifications: Aib2, αMeF(2F)6, 4Pal10, αMeL13, Orn16, K17(Z1), Aib20, D-Glu24, αMeY25, K31(Z1), C-term NH2; Z1=AEEA2-(γ-Glu)-CO-(CH2)12-CH3
In the case of B2, the Ki in assay [1] turned out to be 0.024 nM; in assay [2] it was 4.29 nM; in assay [3] it was 0.139 nM.

B3: Y-Aib-EGT-αMeF(2F)-TSD-4Pal-Aib-I-αMeL-LD-Orn-K((2-[2-(2-Amino-ethoxy)-ethoxy]-acetyl)3-(γ-Glu)-CO-(CH2)10-CH3)AQ-Aib-EFI-(D-Glu)-αMeY-LIK((2-[2-(2-Amino-ethoxy … (peptide)
peptide: YXEGTXTSDXXIXLDXKAQXEFIXXLIKGGPSSGAPPPS
modifications: Aib2, αMeF(2F)6, 4Pal10, Aib11, αMeL13, Orn16, K17(Z1), Aib20, D-Glu24, αMeY25, K28(Z1), C-term NH2; Z1=AEEA3-(γ-Glu)-CO-(CH2)10-CH3
Regarding B3, the Ki in assay [1] turned out to be 0.0207 nM; in assay [2] it was 85.9 nM; in assay [3], 0.275 nM.

B4: Y-Aib-EGT-αMeF(2F)-TSD-4Pal-SI-αMeL-LD-Orn-K((2-[2-(2-Amino-ethoxy)-ethoxy]-acetyl)2-(γ-Glu)-CO-(CH2)14-CH3)AQ-Aib-EFI-(D-Glu)-αMeY-LIEGGK((2-[2-(2-Amino-ethoxy … (peptide)
peptide: YXEGTXTSDXSIXLDXKAQXEFIXXLIEGGKSSGAPPPS
modifications: Aib2, αMeF(2F)6, 4Pal10, αMeL13, Orn16, K17(Z1), Aib20, D-Glu24, αMeY25, K31(Z1), C-term NH2; Z1=AEEA2-(γ-Glu)-CO-(CH2)14-CH3
B4: the Ki is 0.0501 nM in assay [1], 1.46 nM in assay [2] and 0.362 nM in assay [3].

B5: Y-Aib-EGT-αMeF(2F)-TSD-4Pal-Aib-I-αMeL-LD-Orn-K((2-[2-(2-Amino-ethoxy)-ethoxy]-acetyl)2-(γ-Glu)-CO-(CH2)10-CH3)AQ-Aib-EFI-(D-Glu)-αMeY-LIK((2-[2-(2-Amino-ethoxy … (peptide)
peptide: YXEGTXTSDXXIXLDXKAQXEFIXXLIKGGPSSGAPPPS
modifications: Aib2, αMeF(2F)6, 4Pal10, Aib11, αMeL13, Orn16, K17(Z1), Aib20, D-Glu24, αMeY25, K28(Z1), C-term NH2; Z1=AEEA2-(γ-Glu)-CO-(CH2)10-CH3
As to B5, the results for the Ki in assay [1], in assay [2] and in assay [3] were 0.0195 nM, 75.5 nM and 0.325 nM, respectively.

B6: Y-Aib-EGT-αMeF(2F)-TSDK((2-[2-(2-Amino-ethoxy)-ethoxy]-acetyl)3-(γ-Glu)-CO-(CH2)10-CH3)-Aib-I-αMeL-LD-Orn-K((2-[2-(2-Amino-ethoxy)-ethoxy]-acetyl)3-(γ-Glu)-CO-( … (peptide)
peptide: YXEGTXTSDKXIXLDXKAQXXFIXXLIEGGPSSGAPPPS
modifications: Aib2, αMeF(2F)6, K10(Z1), Aib11, αMeL13, Orn16, K17(Z1), Aib20, Orn21, D-Glu24, αMeY25, C-term NH2; Z1=AEEA3-(γ-Glu)-CO-(CH2)10-CH3
Take B6: the Ki in assay [1] stood at 0.0134 nM; in assay [2], 356 nM; in assay [3], 0.134 nM.

B7: Y-Aib-EGT-αMeF(2F)-TSD-4Pal-Aib-I-αMeL-LD-Orn-K((2-[2-(2-Amino-ethoxy)-ethoxy]-acetyl)3-(γ-Glu)-CO-(CH2)10-CH3)AQ-Aib-K((2-[2-(2-Amino-ethoxy)-ethoxy]-acetyl)3- … (peptide)
peptide: YXEGTXTSDXXIXLDXKAQXKFIXXLIXGGPSSGAPPPS
modifications: Aib2, αMeF(2F)6, 4Pal10, Aib11, αMeL13, Orn16, K17(Z1), Aib20, K21(Z1), D-Glu24, αMeY25, Orn28, C-term NH2; Z1=AEEA3-(γ-Glu)-CO-(CH2)10-CH3
As for B7, the results for the Ki in assay [1], in assay [2] and in assay [3] were 0.0175 nM, 28.3 nM and 0.187 nM, respectively.

B8: Y-Aib-EGT-αMeF(2F)-TSD-4Pal-Aib-I-αMeL-LD-Orn-K((2-[2-(2-Amino-ethoxy)-ethoxy]-acetyl)-(γ-Glu)-(10-(4-carboxyphenoxy)decanoyl))AQ-Aib-EFIe-αMeY-LIK((2-[2-(2-Ami … (peptide)
peptide: YXEGTXTSDXXIXLDXKAQXEFIXXLIKGGPSSGAPPPS
modifications: Aib2, αMeF(2F)6, 4Pal10, Aib11, αMeL13, Orn16, K17(Z1), Aib20, D-Glu24 (printed e), αMeY25, K28(Z1), C-term NH2; Z1=AEEA-(γ-Glu)-(10-(4-carboxyphenoxy)decanoyl)
As to B8, the Ki amounted to 0.0578 nM in assay [1], 238 nM in assay [2] and 1.22 nM in assay [3].

B9: Y-Aib-EGT-αMeF(2F)-TSD-4Pal-Aib-I-αMeL-LD-Orn-K((2-[2-(2-Amino-ethoxy)-ethoxy]-acetyl)2-(γ-Glu)-CO-(CH2)10-CH3)AQ-Aib-Orn-FI-(D-Glu)-αMeY-LIK((2-[2-(2-Amino-eth … (peptide)
peptide: YXEGTXTSDXXIXLDXKAQXXFIXXLIKGGPSSGAPPPS
modifications: Aib2, αMeF(2F)6, 4Pal10, Aib11, αMeL13, Orn16, K17(Z1), Aib20, Orn21, D-Glu24, αMeY25, K28(Z1), C-term NH2; Z1=AEEA2-(γ-Glu)-CO-(CH2)10-CH3
As to B9, the results for the Ki in assay [1], in assay [2] and in assay [3] were 0.0229 nM, 33.7 nM and 0.194 nM, respectively.

B10: Y-Aib-EGT-αMeF(2F)-TSDK((2-[2-(2-Amino-ethoxy)-ethoxy]-acetyl)2-(γ-Glu)-CO-(CH2)10-CH3)-Aib-I-αMeL-LD-Orn-K((2-[2-(2-Amino-ethoxy)-ethoxy]-acetyl)2-(γ-Glu)-CO-( … (peptide)
peptide: YXEGTXTSDKXIXLDXKAQXXFIXXLIEGGPSSGAPPPS
modifications: Aib2, αMeF(2F)6, K10(Z1), Aib11, αMeL13, Orn16, K17(Z1), Aib20, Orn21, D-Glu24, αMeY25, C-term NH2; Z1=AEEA2-(γ-Glu)-CO-(CH2)10-CH3
As to B10, the Ki in assay [1] came to 0.0214 nM; in assay [2], 58.4 nM; in assay [3], 0.167 nM.

B11: Y-Aib-EGT-αMeF(2F)-TSD-4Pal-Aib-I-αMeL-LD-Orn-K((2-[2-(2-Amino-ethoxy)-ethoxy]-acetyl)3-(γ-Glu)-CO-(CH2)10-CH3)AQ-Aib-Orn-FI-(D-Glu)-αMeY-LIK((2-[2-(2-Amino-eth … (peptide)
peptide: YXEGTXTSDXXIXLDXKAQXXFIXXLIKGGPSSGAPPPS
modifications: Aib2, αMeF(2F)6, 4Pal10, Aib11, αMeL13, Orn16, K17(Z1), Aib20, Orn21, D-Glu24, αMeY25, K28(Z1), C-term NH2; Z1=AEEA3-(γ-Glu)-CO-(CH2)10-CH3
Turning to B11, the values for the Ki in assay [1], in assay [2] and in assay [3] were 0.00965 nM, 81.2 nM and 0.15 nM, respectively.

B12: Y-Aib-EGT-αMeF(2F)-TSDK((2-[2-(2-Amino-ethoxy)-ethoxy]-acetyl)3-(γ-Glu)-CO-(CH2)10-CH3)-Aib-I-αMeL-LD-Orn-K((2-[2-(2-Amino-ethoxy)-ethoxy]-acetyl)3-(γ-Glu)-CO-( … (peptide)
peptide: YXEGTXTSDKXIXLDXKAQXEXIXXLIEGGPSSGAPPPS
modifications: Aib2, αMeF(2F)6, K10(Z1), Aib11, αMeL13, Orn16, K17(Z1), Aib20, αMeF22, D-Glu24, αMeY25, C-term NH2; Z1=AEEA3-(γ-Glu)-CO-(CH2)10-CH3
With B12, the Ki was determined as 0.0372 nM in assay [1], 64.9 nM in assay [2] and 0.412 nM in assay [3].

B13: Y-Aib-EGT-αMeF(2F)-TSD-4Pal-Aib-I-αMeL-LD-Orn-K((2-[2-(2-Amino-ethoxy)-ethoxy]-acetyl)2-(γ-Glu)-CO-(CH2)10-CH3)AQ-Aib-K((2-[2-(2-Amino-ethoxy)-ethoxy]-acetyl)2- … (peptide)
peptide: YXEGTXTSDXXIXLDXKAQXKFIXXLIEGGPSSGAPPPS
modifications: Aib2, αMeF(2F)6, 4Pal10, Aib11, αMeL13, Orn16, K17(Z1), Aib20, K21(Z1), D-Glu24, αMeY25, C-term NH2; Z1=AEEA2-(γ-Glu)-CO-(CH2)10-CH3
Take B13: the Ki worked out at 0.0162 nM in assay [1], 2.91 nM in assay [2] and 0.234 nM in assay [3].

B14: Y-Aib-EGT-αMeF(2F)-TSD-4Pal-Aib-I-αMeL-LD-Orn-K((2-[2-(2-Amino-ethoxy)-ethoxy]-acetyl)-(γ-Glu)-CO-(CH2)12-CO2H)AQ-Aib-K((2-[2-(2-Amino-ethoxy)-ethoxy]-acetyl)-( … (peptide)
peptide: YXEGTXTSDXXIXLDXKAQXKFIXXLIEGGPSSGAPPPS
modifications: Aib2, αMeF(2F)6, 4Pal10, Aib11, αMeL13, Orn16, K17(Z1), Aib20, K21(Z1), D-Glu24, αMeY25, C-term NH2; Z1=AEEA-(γ-Glu)-CO-(CH2)12-CO2H
B14: the Ki in assay [1] is 0.0782 nM; in assay [2], 230 nM; in assay [3], 1.85 nM.

B15: Y-Aib-EGT-αMeF(2F)-TSD-4Pal-Aib-I-αMeL-LD-Orn-K((2-[2-(2-Amino-ethoxy)-ethoxy]-acetyl)3-(γ-Glu)-CO-(CH2)10-CH3)AQ-Aib-K((2-[2-(2-Amino-ethoxy)-ethoxy]-acetyl)3- … (peptide)
peptide: YXEGTXTSDXXIXLDXKAQXKFIXXLIEGGPSSGAPPPS
modifications: Aib2, αMeF(2F)6, 4Pal10, Aib11, αMeL13, Orn16, K17(Z1), Aib20, K21(Z1), D-Glu24, αMeY25, C-term NH2; Z1=AEEA3-(γ-Glu)-CO-(CH2)10-CH3
Consider B15, for which the Ki in assay [1] amounted to 0.0218 nM; in assay [2], 12.2 nM; in assay [3], 0.194 nM.
